# T1: recombinant mouse LRP5-His chimera (mouse, UniProt Q91VN0 31-1383)
# T1 construct: extracellular domain; not shown: His tag
# T1 sequence (looked up): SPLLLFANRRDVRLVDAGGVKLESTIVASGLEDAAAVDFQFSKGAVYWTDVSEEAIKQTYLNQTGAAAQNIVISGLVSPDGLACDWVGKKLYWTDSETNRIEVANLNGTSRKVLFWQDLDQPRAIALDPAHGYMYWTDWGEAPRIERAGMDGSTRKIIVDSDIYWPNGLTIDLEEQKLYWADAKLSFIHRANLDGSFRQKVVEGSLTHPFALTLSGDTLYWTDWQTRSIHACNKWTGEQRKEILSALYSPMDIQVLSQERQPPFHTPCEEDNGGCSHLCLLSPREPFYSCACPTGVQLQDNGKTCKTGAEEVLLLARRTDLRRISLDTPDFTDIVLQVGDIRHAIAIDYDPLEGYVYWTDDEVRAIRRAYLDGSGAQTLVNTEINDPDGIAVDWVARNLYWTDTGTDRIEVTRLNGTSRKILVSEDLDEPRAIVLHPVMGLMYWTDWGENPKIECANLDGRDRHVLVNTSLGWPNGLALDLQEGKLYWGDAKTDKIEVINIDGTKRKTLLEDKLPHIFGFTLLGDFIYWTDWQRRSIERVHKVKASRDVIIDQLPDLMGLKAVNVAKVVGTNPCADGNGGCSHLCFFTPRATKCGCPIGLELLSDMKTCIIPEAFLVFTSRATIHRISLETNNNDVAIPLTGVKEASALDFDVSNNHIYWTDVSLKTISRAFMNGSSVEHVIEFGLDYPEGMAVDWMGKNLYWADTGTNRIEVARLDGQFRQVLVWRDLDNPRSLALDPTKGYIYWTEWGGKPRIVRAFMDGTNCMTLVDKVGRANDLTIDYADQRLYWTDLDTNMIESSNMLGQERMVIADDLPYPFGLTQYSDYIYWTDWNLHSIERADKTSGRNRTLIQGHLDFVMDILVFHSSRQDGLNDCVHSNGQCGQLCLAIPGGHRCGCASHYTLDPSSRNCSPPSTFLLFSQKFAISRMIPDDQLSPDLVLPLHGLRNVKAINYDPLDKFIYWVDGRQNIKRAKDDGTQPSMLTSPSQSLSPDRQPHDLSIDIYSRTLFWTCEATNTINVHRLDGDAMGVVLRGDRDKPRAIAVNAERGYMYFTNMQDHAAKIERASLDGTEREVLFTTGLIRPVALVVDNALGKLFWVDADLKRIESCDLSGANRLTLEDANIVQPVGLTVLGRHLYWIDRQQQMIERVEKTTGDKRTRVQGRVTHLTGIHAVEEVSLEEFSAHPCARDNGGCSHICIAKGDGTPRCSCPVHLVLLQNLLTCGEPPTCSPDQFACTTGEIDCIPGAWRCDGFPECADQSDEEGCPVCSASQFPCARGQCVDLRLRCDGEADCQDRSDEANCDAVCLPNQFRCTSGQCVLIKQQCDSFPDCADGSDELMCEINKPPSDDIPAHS
# T2: recombinant human LRP6-Fc chimera (human, UniProt O75581 20-1370)
# T2 construct: extracellular domain; also called human LRP6 chimera; not shown: Fc part of the chimera
# T2 sequence (looked up): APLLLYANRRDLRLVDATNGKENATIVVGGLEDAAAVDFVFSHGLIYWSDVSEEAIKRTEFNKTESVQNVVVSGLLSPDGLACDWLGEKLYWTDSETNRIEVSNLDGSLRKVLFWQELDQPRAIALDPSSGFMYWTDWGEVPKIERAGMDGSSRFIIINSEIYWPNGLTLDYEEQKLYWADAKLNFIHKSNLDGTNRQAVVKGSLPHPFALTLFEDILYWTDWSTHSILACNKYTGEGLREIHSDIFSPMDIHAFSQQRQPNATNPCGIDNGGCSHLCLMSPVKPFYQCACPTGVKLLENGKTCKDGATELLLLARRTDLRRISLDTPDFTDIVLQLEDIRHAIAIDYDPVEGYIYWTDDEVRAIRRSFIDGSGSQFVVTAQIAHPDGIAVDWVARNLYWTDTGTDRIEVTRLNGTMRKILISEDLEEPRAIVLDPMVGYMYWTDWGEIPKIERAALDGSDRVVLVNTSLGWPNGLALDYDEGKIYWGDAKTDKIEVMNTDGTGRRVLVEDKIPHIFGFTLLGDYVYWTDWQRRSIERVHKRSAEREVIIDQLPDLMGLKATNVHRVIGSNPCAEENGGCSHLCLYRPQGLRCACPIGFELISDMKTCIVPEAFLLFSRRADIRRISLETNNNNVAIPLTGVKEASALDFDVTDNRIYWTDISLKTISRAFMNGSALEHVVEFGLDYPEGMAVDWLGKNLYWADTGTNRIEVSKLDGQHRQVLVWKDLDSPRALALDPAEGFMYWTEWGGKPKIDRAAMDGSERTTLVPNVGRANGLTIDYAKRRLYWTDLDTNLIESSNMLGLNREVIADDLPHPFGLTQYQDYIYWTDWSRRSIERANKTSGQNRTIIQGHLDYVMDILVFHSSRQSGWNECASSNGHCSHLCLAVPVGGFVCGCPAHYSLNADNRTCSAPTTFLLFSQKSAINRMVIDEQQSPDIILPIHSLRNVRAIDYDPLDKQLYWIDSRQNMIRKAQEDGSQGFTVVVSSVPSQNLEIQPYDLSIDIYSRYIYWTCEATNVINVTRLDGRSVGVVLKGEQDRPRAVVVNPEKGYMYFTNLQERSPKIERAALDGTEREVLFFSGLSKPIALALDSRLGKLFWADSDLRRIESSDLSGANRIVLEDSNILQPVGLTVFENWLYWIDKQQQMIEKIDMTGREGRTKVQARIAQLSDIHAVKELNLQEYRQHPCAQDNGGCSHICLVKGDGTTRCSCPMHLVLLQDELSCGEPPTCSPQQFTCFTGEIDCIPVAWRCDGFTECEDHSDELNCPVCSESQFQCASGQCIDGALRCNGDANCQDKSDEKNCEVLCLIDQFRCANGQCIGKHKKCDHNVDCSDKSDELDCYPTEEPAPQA
# How the values were obtained:
# [1] = biological target: T1, recombinant mouse LRP5-His chimera; experiment: single-point ELISA, IgG1 on coated antigen
# Experimental: FIGS. 1a and 1b show LRP six antibodies. (A) The amino acid sequences of the complementarity determining regions (CDR) of the heavy (H) and the light (L) chains are presented. The antibodies were grouped into unique epitopes as determined by competitive ELISAs. (B) Single-point ELISAs were performed on 96-well Maxisorb immune plates coated with the […] of mouse LRP5, mouse LRP6 and human LRP6 chimeras. The plates were incubated with the purified Fab or IgG1 at the concentrations indicated followed by incubation with horseradish peroxidase (HRP)-conjugated anti-kappa antibody. The wells were washed eight times followed by incubation with 3,3′,5,5′-tetramethylbenzidine/H₂O₂ peroxidase (TMB) substrate for 5-10 min. The reaction was stopped by adding one M H₃PO₄ and the absorbance was measured spectrometrically at 450 nm in a microtiter plate reader.
# (§1) The full length IgG1s were purified and a single-point ELISA was done to determine the specificity of the antibodies. […] A multipoint competitive ELISA was used to determine the relative affinities of the antibodies to the recombinant antigen.
# [2] = biological target: T2, recombinant human LRP6-Fc chimera; experiment: multipoint competitive ELISA; human LRP6-Fc chimera titrated against OD450 of the IgG1; non-linear regression
# Experimental: as §1
# Table 3 reports the IC50 of LRP6 antibodies as determined by competitive ELISA. The log of the recombinant human LRP6-Fc chimera concentration (x-axis) was plotted against the OD450 reading of the antibody (y-axis). The IC50 was determined by non-linear regression analysis.
# [3] = biological target: full-length LRP6 receptor expressed on the surface of cell lines (UniProt O75581 20-1613, limits assumed); experiment: cell-based or functional assay
binding result [1],IC50 [2] [nM],"functional IC50, Wnt3aCM-stimulated TOPflash reporter activity (MDAMB231, U2OS, H23 cells) [3] [nM]","functional IC50, Wnt3aCM-stimulated TOPflash reporter activity (MDAMB231 cells) [3] [nM]",Binder
no binding,6.29,< 0.3,,"LRP6-A10 IgG1 antibody (antibody, V domains shown, Tested as purified full length IgG1) VH: EVQLVESGGGLVQPGGSLRLSCAASGFNISYSSIHWVRQAPGKGLEWVAYISSYYGYTYYADSVKGRFTISADTSKNTAYLQMNSLRAEDTAVYYCARAHYFPWAGAMDYWGQGTLVTVSS VL: DIQMTQSPSSLSASVGDRVTITCRASQSVSSAVAWYQQKPGKAPKLLIYSASSLYSGVPSRFSGSRSGTDFTLTISSLQPEDFATYYCQQYSWGPFTFGQGTKVEIKR"
,,,< 0.3,"LRP6-A10 Fab protein (Fab, V domains shown) VH: EVQLVESGGGLVQPGGSLRLSCAASGFNISYSSIHWVRQAPGKGLEWVAYISSYYGYTYYADSVKGRFTISADTSKNTAYLQMNSLRAEDTAVYYCARAHYFPWAGAMDYWGQGTLVTVSS VL: DIQMTQSPSSLSASVGDRVTITCRASQSVSSAVAWYQQKPGKAPKLLIYSASSLYSGVPSRFSGSRSGTDFTLTISSLQPEDFATYYCQQYSWGPFTFGQGTKVEIKR"
no binding,,,,"LRP6-B6 IgG1 antibody (antibody, V domains shown, Tested as purified full length IgG1) VH: EVQLVESGGGLVQPGGSLRLSCAASGFNISYSSIHWVRQAPGKGLEWVASISPYYGYTYYADSVKGRFTISADTSKNTAYLQMNSLRAEDTAVYYCARSSYFPWFSAMDYWGQGTLVTVSS VL: DIQMTQSPSSLSASVGDRVTITCRASQSVSSAVAWYQQKPGKAPKLLIYSASSLYSGVPSRFSGSRSGTDFTLTISSLQPEDFATYYCQQYYFLITFGQGTKVEIKR"
no binding,10.2,,,"LRP6-G3 IgG1 antibody (antibody, V domains shown, Tested as purified full length IgG1) VH: EVQLVESGGGLVQPGGSLRLSCAASGFNISSYYIHWVRQAPGKGLEWVASIYSSYGYTSYADSVKGRFTISADTSKNTAYLQMNSLRAEDTAVYYCARTVRGSKKPYFSGWAMDYWGQGTLVTVSS VL: DIQMTQSPSSLSASVGDRVTITCRASQSVSSAVAWYQQKPGKAPKLLIYSASSLYSGVPSRFSGSRSGTDFTLTISSLQPEDFATYYCQQYYWPITFGQGTKVEIKR"
no binding,6.03,,,"LRP6-G9 IgG1 antibody (antibody, V domains shown, Tested as purified full length IgG1) VH: EVQLVESGGGLVQPGGSLRLSCAASGFNIYSYYIHWVRQAPGKGLEWVASIYSSYSYTSYADSVKGRFTISADTSKNTAYLQMNSLRAEDTAVYYCARTVRGSKKPYFSGWAMDYWGQGTLVTVSS VL: DIQMTQSPSSLSASVGDRVTITCRASQSVSSAVAWYQQKPGKAPKLLIYSASSLYSGVPSRFSGSRSGTDFTLTISSLQPEDFATYYCQQYYWPITFGQGTKVEIKR"
no binding,9.58,,,"LRP6-A1 IgG1 antibody (antibody, V domains shown, Tested as purified full length IgG1; Synthetic antibody on a human framework, detected with anti-kappa antibody) VH: EVQLVESGGGLVQPGGSLRLSCAASGFNLSYYYIHWVRQAPGKGLEWVASIYSSYGYTSYADSVKGRFTISADTSKNTAYLQMNSLRAEDTAVYYCARTVRGSKKPYFSGWAMDYWGQGTLVTVSS VL: DIQMTQSPSSLSASVGDRVTITCRASQSVSSAVAWYQQKPGKAPKLLIYSASSLYSGVPSRFSGSRSGTDFTLTISSLQPEDFATYYCQQYYWPITFGQGTKVEIKR"

# From patent US20220281969A1 (ANTLERA THERAPEUTICS, published 2022)
